This note sets out measurements from PMC1869045 (Journal of thrombosis and haemostasis : JTH, 2007).

The data set concerns the molecule itself. The data set can be described thus: FRET or BRET.

B1: GPVI BRET pair (GPVI-GFP and GPVI-luciferase) (receptor, UniProt Q9HCN6 21-339, looked up)
chain: QSGPLPKPSLQALPSSLVPLEKPVTLRCQGPPGVDLYRLEKLSSSRYQDQAVLFIPAMKRSLAGRYRCSYQNGSLWSLPSDQLELVATGVFAKPSLSAQPGPAVSSGGDVTLQCQTRYGFDQFALYKEGDPAPYKNPERWYRASFPIITVTAAHSGTYRCYSFSSRDPYLWSAPSDPLELVVTGTSVTPSRLPTEPPSPVAEFSEATAELTVSFTNEVFTTETSRSITASPKESDSPAGPARQYYTKGNLVRICLGAVILIILAGFLAEDWHSRRKRLRHRGRAVQRPLPPLPPLPLTRKSNGGQDGGRQDVHSRGLCS
Consider B1, for which the “stoichiometry N” value was determined as 2.

The term stoichiometry N denotes the number of molecules, sites or subunits per partner or assembly.
